Reference: PMC5354776

Assays:
[1] = target: CLIP-170 (cytoplasmic linker protein 170) (UniProt P30622); assay: HA immunoprecipitation, CLIP-170 immunoblot; conditions: reference: HA-EB1 wild type; sites S40,T154,T206
[2] = target: p150glued (UniProt Q14203); assay: HA immunoprecipitation, p150glued immunoblot; conditions: reference: HA-EB1 wild type; sites S40,T154,T206

EB1 (end-binding protein 1) (from UniProt Q15691) HA-EB1 3A (S40A/T154A/T206A)
binding against the reference [1]: weaker | binding against the reference [2]: weaker
